The record followed here is US20190248902A1 (published 2019).

Residue numbers refer to the chain shown, from its start.

The labels stand for the following.
T1: Pig ASGR-1 (pig)
T1 construct: Expressed on HEK 293 cells or as membrane prep on beads; cDNA GenBank NM_001244458
T1 chain: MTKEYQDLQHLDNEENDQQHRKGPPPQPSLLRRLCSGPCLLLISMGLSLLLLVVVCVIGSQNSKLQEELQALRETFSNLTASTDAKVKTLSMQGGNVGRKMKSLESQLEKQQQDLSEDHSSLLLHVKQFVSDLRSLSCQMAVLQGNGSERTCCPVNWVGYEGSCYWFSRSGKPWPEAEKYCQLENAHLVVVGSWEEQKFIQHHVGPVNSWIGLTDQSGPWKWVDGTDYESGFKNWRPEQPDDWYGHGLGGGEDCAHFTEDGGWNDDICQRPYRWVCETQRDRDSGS

T2: Cyno ASGR-1 (cynomolgus monkey, UniProt P07306 1-291 (human entry))
T2 construct: Expressed on HEK 293 cells or as membrane prep on beads; cDNA from XP_005582755; also called cynomologus monkey ASGR-1
T2 chain: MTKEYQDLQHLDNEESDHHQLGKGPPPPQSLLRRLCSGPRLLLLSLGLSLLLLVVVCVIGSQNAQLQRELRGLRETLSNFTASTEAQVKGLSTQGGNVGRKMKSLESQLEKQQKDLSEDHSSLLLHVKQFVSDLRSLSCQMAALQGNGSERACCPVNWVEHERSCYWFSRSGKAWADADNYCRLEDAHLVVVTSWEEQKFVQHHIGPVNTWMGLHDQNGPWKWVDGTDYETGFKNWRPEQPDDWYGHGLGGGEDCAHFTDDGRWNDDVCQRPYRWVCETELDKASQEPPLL

B1: 202A3 (antibody, V domains shown)
VH: QVQLEQSGAEVKKPGASVKVSCKASGYTFTSYDINWVRQATGQGLEWLGWMNPKRGNTGYAQKFQGRVTMTRNTSISTAHMELSSLRSEDTAVYYCARGRYSREDYYYYYDMDVWGQGTTVTVSS
VL: DIQMSQSPSSLSASVGDRVTITCRASQGIRNDLGWYQQKPGKAPKRLICAASRLQSGVPSRFSGSGSGTEFTLTISSLQPEDFAIYYCLQHHDYPFTFGPGTKVDIK
notes: Tested as hybridoma supernatant at normalized concentration
B2: 194C10 (antibody, V domains shown)
VH: QVQLQQWGAGLLKPSETLSLTCAVSGGSFRYYYWSWIRQPPGKGLEWFGEINHSGSTNYNPSLKSRVTISIDTSKNQFSLKLRSVTAADTAVYYCARDYGAFDIWGQGTMVTVSS
VL: EIVLTQSPGTLSLSPGERATLSCRASPSVNSGYLAWYQQKPGQTPRLLIFGASSRATGIPDRFSASGSGADFTLTISRLEPEDFAVYFCQQYESSPWTFGQGTKVEIK
notes: as for B1
B3: 12D2 (antibody, V domains shown)
VH: EVQLVESGGGLVKPGGSLRLSCAASGFTFSSYSMNWVRQAPGKGLEWVSSISSSSSYIYYADSVKGRFTISRDNAKNSLYLQMNSLRAEDTAVYYCARLGDYWGQGTLVAVSS
VL: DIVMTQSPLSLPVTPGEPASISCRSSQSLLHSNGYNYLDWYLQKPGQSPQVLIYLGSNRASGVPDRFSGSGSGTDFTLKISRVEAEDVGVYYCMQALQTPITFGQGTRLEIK
notes: as for B1
B4: 218G4 (antibody, V domains shown)
VH: QVQLVESGGGVVQPGRSLRLSCAASGFTFSSYGLHWVRQAPGKGLEWVAVIWYDGSNKYYADSVKGRFTISRDNSKNTLYLQMNSLRVEDTAVYYCANWYYYYYGMDVWGQGTTVTVSS
VL: QSVLTQPPSVSAAPGQKVTISCSGSSSNIGNNYVSWYQQLPGTAPKLLLYDSNKRPSGIPARFSGSKSGTSATLGITGLQTGDEADYYCGTWDSSLNTVVFGGGTKLTVL
notes: as for B1
B5: 198D2 (antibody, V domains shown)
VH: QVQLVESGGGVVQPGRSLRLSCAASGFTFRSYGMHWVRQAPGKGLEWVAVIIYDGSYKYYADSVKGRFTISRDNSKNTLYLQMNSLRAEDTAVYYCARTYSGGMDVWGQGTTVTVSS
VL: B4 VL with N31S, L47V, L49I, S52N, A61D, S95R, T98V, V99G
notes: as for B1
B6: 176H4 (antibody, V domains shown)
VH: QVQLVESGGGVVQPGRSLRLSCAASGFTFSSYGMHWVRQAPGKGLEWVAIIWYDGSYKYYADSVKGRFTISRDNSKNTLYLQMSSLRAEDTAVYYCARDAHDFWSGYFAYWGQGALVTVSS
VL: DIVMTQTPLSLSVTPGQPASISCKSSQSLLHGDGKTYLYWYLQKPGQPPQLLIYEVSNRFSGVPDRFSGSGSGTDFTLKISRVEAEDVGIYYCMQSIQIPWTFGQGTRVEIK
notes: as for B1
B7: 7E11 (antibody, V domains shown)
VH: QVQLVESGGGVVQPGRSLRLSCAASGFTFSSFGMHWVRQAPGKGLEWVAIIWHDGSNKYYADSVKGRFTISRDNSNNTLYLQMSSLRAEDTAVYYCARDLSMGGMDVWGQGTTVTVSS
VL: DIQMTQSPSSLSASVGDRVTIACRASQNIISYLNWYQQKPGKAPKFLIYTASSLQSGVPSRFSGSGSGTDFTLTISSLQPEDFAIYYCQQTYSTPLTFGGGTKVEIK
notes: as for B1
B8: 7G4 (antibody, V domains shown)
VH: QVQLVESGGGVVQPGRSLRLSCAASGFTFNNYVMHWVRQAPGKGLEWVAVIWYDGSNKYYADSVKGRFTISRDNSKNTLYLQMTSLRAEDTAVYYCAREKYSSNWYDYGMDVWGQGTTVTVSS
VL: DIQMTQSPSSLSASVGDRVTITCRASQGIRNDLGWYQQRPGKAPKRLIYAASSLQSGVPSRFSGSGSGTEFTLTISSLQPEDSATYYCLHQYSYPRTFGQGTKVEIK
notes: as for B1
B9: 190F8 (antibody, V domains shown)
VH: QVQLVESGGGVVQPGRSLRLSCAASGFTFSTYGMHWVRQAPGKGLEWVAVIWYDGSNKNYADSVKGRFTISRDNSKNTLYLQMNSLRAEDTAVYYCARDQGVGYDGLDVWGQGTTVTVSS
VL: DIQMTQSPSSLSASVGDRVTITCRTSQGIGNYLAWFQQKPGKAPKSLLYKASSLQSGVPSKFSGSGSGTDFTLTISSLQPEDFATYYCQQYMTYPLTFGGGTKVEIK
notes: as for B1
B10: 194C1 (antibody, V domains shown)
VH: B9 VH with T31S, K58E, N59H, D99N, Q100R, D105Y
VL: B9 VL with T25A, G30S, L48I, K50A, Q89L, Q90H, M92L
notes: as for B1
B11: 197G3 (antibody, V domains shown)
VH: B9 VH with A23V, T31S, Y32H, Q100P, G101S, L107M
VL: DIQMTQSPSSLSASVGDRVTITCRASQGIGNHLAWFQQKPGKAPKSLIYAASSLQSGVPSKFSGSRSGTDFSLTISSLQPEDFATYYCQQYSNYPVTFGPGTKVDIK
notes: as for B1
B12: 191G1 (antibody, V domains shown)
VH: B9 VH with T31S, K58E, N59H, Q100R, D105Y
VL: B9 VL with T25A, G30S, L48I, K50A, Q90H, M92L
notes: as for B1
B13: 198G3 (antibody, V domains shown)
VH: B9 VH with R19K, S56T, Y80C
VL: B9 VL with T5A, N31K, S56G
notes: as for B1
B14: 191G10 (antibody, V domains shown)
VH: B9 VH with T31S
VL: B9 VL with N31K, A51V
notes: as for B1
B15: 25A4 (antibody, V domains shown)
VH: QVLLVQSGAEVKRPGASVKVSCKASGYTFTNYDINWVRQATGQGLEWMGWMYPNSGNTGYAQKFQGRVTMTRNTSISTAYMELSSLRSEDTAVYYCASSSGWYYFDYWGQGTLVTVSS
VL: DIVMTQFPDSLAVSLGERATIKCKSSQSVLYSSHNNNYLAWYQQKPGQPPKLLLYWASTRESGVPDRFSGSGSGTEFTLTISSLEAEDVAVYYCQQYYSTPPTFGQGTKVEIK
notes: as for B1
B16: 75G3 (antibody, V domains shown)
VH: QVQLQQWGAGLLKPSETLSLTCAVYGGSLSGSYWSWIRQPPGKGLEWIGEINLSGSTNYNPSLKSRVTISVDTSKSQFSLTLRSVTAADTAVYYCARDYGGLDYWGQGTLVTVSS
VL: EIVLTQSPGTLSLSPGERATLSCRARQNVDSSYLAWYQQKPGQAPRLLIYGASSRATGIPDRFSGSGSGTDFTLTISRLEPEDFAVFYCQQYERSPWTFGQGTKVEIK
notes: as for B1
B17: 6G7 (antibody, V domains shown)
VH: QVQLVESGGGVVQPGRSLRLSCAASGFTFSSYGMHWVRQTPGKGLEWVAIISYVGKNKYYADSVKGRFTISRDNSKNTLYLQMNSLRAEDTAVYYCARRGNSYGGYGMDVWGQGTTVTVSS
VL: DIQMTQSPSSRSASVGDRVTITCQASQDISNYLNWCQQKPGKALKLLIYDASTLETGVPSRFSGSGSGTDFTFTISSVQPEDIATYYCQQYDNVPITFGQGTRLEIK
notes: as for B1

In the first assay the target is T1, Pig ASGR-1. The assay is described as follows: FACS on transfected HEK 293 cells or membrane preps on beads; Y = signal at least 2x irrelevant IgG. The procedure:
(§1) Human ASGR-1-specific, ligand competing antibody samples were tested for binding to ASGR-1 from other species (cynomologus monkey ASGR-1, mouse ASGR-1, rat ASGR-1, dog ASGR-1, and pig ASGR-1) as well as to human ASGR-2 in FACS binding assays at normalized antibody concentrations. For cell-based assays, HEK 293 cells expressing the appropriate antigen of interest were mixed with antibody sample or controls, incubated for 1 hour at 4° C., and then washed twice. Cells with bound antibody were then incubated with Alexa Fluor® 647 IgG Fc fragment-specific detection antibody and 7-AAD viability stain for 15 minutes at 4° C., washed once and resuspended in FACS buffer. Samples were analyzed using a BD Accuri™ Flow Cytometer and an Intellicyt HyperCyt Autosampler. As a negative control, supernatants and controls were also screened against HEK 293 cells transfected with empty parental vector. […] For membrane-prep binding assays, ASGR-1 species specific membrane preps were used to coat LumAvidin® microspheres (beads) and tested for binding to selected hybridoma supernatants or controls. Briefly, ASGR-1 species specific membrane preps were incubated with streptavidin-coated LumAvidin® beads for 45 minutes in the dark at room temperature and washed twice. Beads were resuspeneded in FACS buffer containing Stabilguard®. Antigen-bound beads were then incubated with normalized antibody sample for 1 hour in the dark at room temperature, washed twice, incubated with Alexa Fluor® 488 IgG Fc fragment-specific detection antibody for 15 minutes in the dark at room temperature, washed once and finally resuspended in FACS buffer. Samples were analyzed using an Intellicyt iQue™ Screener Platform. FACS buffer supplemented with 1 mM Calcium Chloride was used in all steps. As a negative control, supernatants and controls were also screened against a non-ASGR-1 antigen membrane prep coated on the LumAvidin® beads.
On to B1, for which the binding result is “binds”.

Consider B2, for which the binding result is recorded as “binds”.

For the molecule B3, the binding result is “binds”.

Take B4: the binding result is reported as “binds”.

In the case of B5, the binding result is reported as “binds”.

As to B6, the binding result is given as “binds”.

As to B7, the binding result is “binds”.

For B8, the binding result is on record as “binds”.

Regarding B9, the binding result is listed as “binds”.

B10: the binding result is on record as “binds”.

On to B11, for which the binding result is “binds”.

As for B12, the binding result is “binds”.

In the case of B13, the binding result is given as “binds”.

In the case of B14, the binding result is “binds”.

On to B15, for which the binding result is “binds”.

For the molecule B16, the binding result is “binds”.

The next assay deals with T2, Cyno ASGR-1. The description is as above. The procedure: as §1
As to B1, the binding result is “binds”.

In the case of B2, the binding result is listed as “binds”.

Turning to B3, the binding result is recorded as “binds”.

For B4, the binding result is recorded as “binds”.

In the case of B5, the binding result is reported as “binds”.

On to B6, for which the binding result is “binds”.

In the case of B7, the binding result is reported as “binds”.

In the case of B17, the binding result was “binds”.

Turning to B8, the binding result was “binds”.

Regarding B9, the binding result is recorded as “binds”.

B10: the binding result is given as “binds”.

As to B11, the binding result was “binds”.

As to B12, the binding result is “binds”.

Consider B13, for which the binding result is “binds”.

For the molecule B14, the binding result is “binds”.

In the case of B15, the binding result is listed as “binds”.

Turning to B16, the binding result is reported as “binds”.
